Laboratory results from publication PMC5454954, “BDNF Binds Its Pro-Peptide with High Affinity and the Common Val66Met Polymorphism Attenuates the Interaction” (International Journal of Molecular Sciences, 2017).
Changes are numbered by the printed parent chain. Each block holds one molecule with its values, some of them ahead of it.

Legend:
[1] = molecular target: BDNF pro-peptide, Val66 (wild type; Val-pro-peptide) (UniProt P23560); test: Surface plasmon resonance (BIAcore 2000); settings: pH 7.4; 20 °C; 0.15 M NaCl; HBS-EP: 0.01 M HEPES (pH 7.4). For Figure 2c the same buffer was adjusted to pH 6.5 or 7.0 with HCl.
[2] = molecular target: BDNF pro-peptide, Met66 (Val66Met polymorphism; Met-pro-peptide) V66M (UniProt P23560); test: Surface plasmon resonance (BIAcore 2000); settings: pH 7.4; 20 °C; 0.15 M NaCl; HBS-EP: 0.01 M HEPES (pH 7.4). For Figure 2c the same buffer was adjusted to pH 6.5 or 7.0 with HCl.
[3] = molecular target: T1, recombinant wild-type BDNF pro-peptide (Val at position 66) (human, UniProt P23560 19-128); test: SPR; BIAcore 2000; BDNF pro-peptide (Val or Met) amine-coupled to a CM5 chip at about 2000 RU; neurotrophins and other proteins flowed over; 20 °C, 20 µL/min; HBS-EP (0.01 M HEPES pH 7.4, 0.15 M NaCl, 3 mM EDTA, 0.005% Surfactant P20); settings: both partners purified
T1 construct: BDNF pro-peptide, residues 19-128 of human precursor BDNF; Vector pET-19b; also called Val-BDNF pro-peptide; Val-pro-peptide; source: E. coli BL21 (DE3) pLysS, purified by liquid chromatography
T1 sequence (looked up): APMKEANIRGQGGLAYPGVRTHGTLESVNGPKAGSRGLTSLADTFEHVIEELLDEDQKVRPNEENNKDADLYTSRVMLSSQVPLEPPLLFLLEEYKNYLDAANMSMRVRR

[4] = molecular target: T2, recombinant BDNF pro-peptide with the Met substitution at position 66 (Val66Met) (human, UniProt P23560 19-128, Val66Met); test: as above; settings: both partners purified
T2 construct: BDNF pro-peptide, residues 19-128 of human precursor BDNF, with the common polymorphism Val66Met; Vector pET-19b; also called Met-BDNF pro-peptide; Met-pro-peptide; source: E. coli BL21 (DE3) pLysS, purified by liquid chromatography
T2 sequence (looked up): T1 sequence (looked up) with V48M

[5] = molecular target: T3, recombinant wild-type BDNF pro-peptide (Val at position 66) (human, UniProt P23560 19-128); test: SPR
T3 chain: T1 sequence (looked up)

ka [1]: 378000 M⁻¹ s⁻¹ | kd [1]: 0.0159 s⁻¹ | ka [2]: 36300 M⁻¹ s⁻¹ | kd [2]: 0.000444 s⁻¹
Molecule: Brain-derived neurotrophic factor (mature BDNF)

Kd [3]: 42.1 nM | koff [3]: 0.0159 s⁻¹ | kon [3]: 378000 M⁻¹ s⁻¹ | Kd [4]: 12.2 nM | koff [4]: 0.000444 s⁻¹ | kon [4]: 36300 M⁻¹ s⁻¹
B1: brain-derived neurotrophic factor (BDNF), recombinant human (ligand)
chain: HSDPARRGELSVCDSISEWVTAADKKTAVDMSGGTVTVLEKVPVSKGQLKQYFYETKCNPMGYTKEGCRGIDKRHWNSQCRTTQSYVRALTMDSKKRIGWRFIRIDTSCVCTLTIKRGR
modifications: mature BDNF; non-covalent homodimer, three intrachain disulfides per chain; a recombinant N-terminal Met is not stated

Kd [5]: 230 nM
B2: recombinant human neurotrophin-4 (NT-4) (ligand)
chain: GVSETAPASRRGELAVCDAVSGWVTDRRTAVDLRGREVEVLGEVPAAGGSPLRQYFFETRCKADNAEEGGPGAGGGGCRGVDRRHWVSECKAKQSYVRALTADAQGRVGWRWIRIDTACVCTLLSRTGRA
